This series deals with T1, bovine brain myelin basic protein (MBP, Sigma), P02687.
T1 chain: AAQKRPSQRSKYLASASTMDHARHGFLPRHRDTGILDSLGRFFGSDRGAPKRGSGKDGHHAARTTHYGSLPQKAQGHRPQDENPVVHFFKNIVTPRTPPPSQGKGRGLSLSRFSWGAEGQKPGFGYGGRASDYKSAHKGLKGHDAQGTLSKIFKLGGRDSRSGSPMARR

We go through 1 protein from patent US20040209325.

B1: OsMAPK5a, endogenous protein from rice leaf extracts (protein)
chain: MDGAPVAEFRPTMTHGGRYLLYDIFGNKFEVTNKYQPPIMPIGRGAYGIVCSVMNFETREMVAIKKIANAFNNDMDAKRTLREIKLLRHLDHENIIGIRDVIPPPIPQAFNDVYIATELMDTDLHHIIRSNQELSEEHCQYFLYQILRGLKYIHSANVIHRDLKPSNLLLNANCDLKICDFGLARPSSESDMMTEYVVTRWYRAPELLLNSTDYSAADVWSVGCIFMELINRQPLFPGRDHMHQMRLITEVIGTPTDDELGFIRNEDARKYMRHLPQYPRRTFASMFPRVQPAALDLIERMLTFNPLQRITVEEALDHPYLERLHDIADEPICLEPFSFDFEQKALNEDQMKQLIFNEAIEMNPNIRY
Consider B1, for which the “in-gel kinase assay of immunoprecipitated OsMAPK5a” value is given as “the OsMAPK5a kinase activity was significantly induced by P. grisea infection”.
